Data published in patent US11845793B2, “Anti-ROR1 antibodies” (NBE-THERAPEUTICS AG, dated 2023).

target: T1, StrepII-tagged ROR1-extracellular domain (human, UniProt Q01973); assay: SPR (Biacore T200), IgG from HEK293T supernatant captured by anti-human Fc, ROR1-strep as analyte, 1:1 model
Procedure: For initial determination of huR12 clone affinities and parental R12 using transient HEK293T supernatants, IgG expression vectors were transiently transfected into 293T cells and IgG titers in supernatants were quantified by ELISA. For SPR, supernatants were diluted to 1 µg/ml IgG with running buffer (HBS-EP+pH 7.4 (10 mM HEPES, 150 mM NaCl, 3 mM EDTA, 0.05% Tween® 20)) and captured for 200s with a flow of 30 µl/min. ROR1-strep was diluted in running buffer using 2-fold serial dilutions ranging from 20 nM to 2.5 nM. Association was measured at a flow of 30 µl/min for 120s, and dissociation was followed for 1000s. Capture levels ranged from 26.9 RU to 54.1 RU.

T1 sequence (Q01973 other isoform, or with tags, fused parts or gaps): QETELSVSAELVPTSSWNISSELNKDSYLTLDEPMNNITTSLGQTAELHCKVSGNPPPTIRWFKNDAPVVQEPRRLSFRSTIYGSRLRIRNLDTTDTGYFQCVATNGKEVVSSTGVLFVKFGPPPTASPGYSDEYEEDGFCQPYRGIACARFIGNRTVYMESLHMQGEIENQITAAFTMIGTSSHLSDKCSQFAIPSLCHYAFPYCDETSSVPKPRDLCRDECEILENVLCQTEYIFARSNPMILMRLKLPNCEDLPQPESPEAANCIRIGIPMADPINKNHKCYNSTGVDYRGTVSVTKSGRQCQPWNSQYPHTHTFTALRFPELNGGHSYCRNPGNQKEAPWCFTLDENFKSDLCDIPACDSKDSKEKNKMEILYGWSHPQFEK

| Binder | Kd [nM] | koff [s⁻¹] | kon [M⁻¹ s⁻¹] |
| --- | --- | --- | --- |
| huR12_11, humanized from R12 (antibody, V domains shown) VH: QVQLVESGGALVQPGGSLTLSCKASGFDFSAYYMSWVRQAPGKGLEWIATIYPSSGKTYYAASVQGRFTISADNAKNTVYLQMNSLTAADTATYFCARDSYADDGALFNIWGQGTLVTVSS VL: QLVLTQSPSVSAALGSSAKITCTLSSAHKTDTIDWYQQLAGQAPRYLMYVQSDGSYEKRSGVPDRFSGSSSGADRYLIISSVQADDEADYYCGADYIGGYVFGGGTQLTVG | 0.084 | 9.65e-05 | 1.15e+06 |
| huR12_7, humanized from R12 (antibody, V domains shown) VH: QVQLVESGGELVQPGGSLTLSCKASGFDFSAYYMSWVRQAPGKGLEWIATIYPSSGKTYYAASVQGRFTISADNAKNTVSLQMNSLTAADTATYFCARDSYADDGALFNIWGKGTLVTVSS VL: QLVLTQSPSVSAALGSSAKITCTLSSAHKTDTIDWYQQLAGQAPRYLMYVQSDGSYEKRSGVPDRFSGSSSGADRYLIISSVQADDEADYYCGADYIGGYVFGGGTQLTVLG | 0.11 | 0.000116 | 1.05e+06 |
| huR12_4, humanized from R12 (antibody, V domains shown) VH: QVQLVESGGELVQPGGSLTLSCKASGFDFSAYYMSWVRQAPGKGLEWIATIYPSSGKTYYAASVQGRFTISADNAKNTVYLQMNSLTAADTATYFCARDSYADDGALFNIWGKGTLVTVSS VL: QLVLTQSPSVSAALGSSAKITCTLSSAHKTDTIDWYQQLAGQAPRYLMYVQSDGSYEKRSGVPDRFSGSASGADRYLAISRVQADDEADYYCGADYIGGYVFGGGTQLTVLG | 0.091 | 9.93e-05 | 1.09e+06 |
| huR12_16, humanized from R12 (antibody, V domains shown) VH: QVQLVESGGELVTPGGSLTLSCKASGFDFSAYYMSWVRQAPGKGLEWIASIYPSSGKTYYAAAVQGRFTISADNAKNTVYLQMNSLTAADTATYFCARDSYADDGALFNIWGQGTLVTVSS VL: QLVLTQSPSVSAALGSSAKITCTLSSAHKTDTIDWYQQLAGQAPRYLMYVQSDGSYEKRSGVPDRFSGSSSGADRYLIISSVQADDEADYYCGADYIGGYVFGGGTQLTVG | 0.092 | 8.79e-05 | 960000 |
| Chimeric mAb R12 (antibody, V domains shown) VH: QEQLVESGGRLVTPGGSLTLSCKASGFDFSAYYMSWVRQAPGKGLEWIATIYPSSGKTYYATWVNGRFTISSDNAQNTVDLQMNSLTAADRATYFCARDSYADDGALFNIWGPGTLVTISS VL: ELVLTQSPSVSAALGSPAKITCTLSSAHKTDTIDWYQQLQGEAPRYLMQVQSDGSYTKRPGVPDRFSGSSSGADRYLIIPSVQADDEADYYCGADYIGGYVFGGGTQLTVT | 1.03 | 0.000361 | 349000 |

target: T1, StrepII-tagged ROR1-extracellular domain; assay: SPR (Biacore T200), purified mAb captured by anti-human Fc, ROR1-strep as analyte, 1:1 model

| Binder | Kd [nM] | koff [s⁻¹] | kon [M⁻¹ s⁻¹] |
| --- | --- | --- | --- |
| chimeric mAb R11 (antibody, V domains shown) VH: QSVKESEGDLVTPAGNLTLTCTASGSDINDYPISWVRQAPGKGLEWIGFINSGGSTWYASWVKGRFTISRTSTTVDLKMTSLTTDDTATYFCARGYSTYYGDFNIWGPGTLVTISS VL: ELVMTQTPSSTSGAVGGTVTINCQASQSIDSNLAWFQQKPGQPPTLLIYRASNLASGVPSRFSGSRSGTEYTLTISGVQREDAATYYCLGGVGNVSYRTSFGGGTEVVVK | 3.4 | 0.00328 | 957000 |
| rbQ11, humanized from R11 (antibody, V domains shown) VH: EVQLVQSGGGLVQPGGSLRLSCAASGSDINDYPISWVRQAPGKGLEWVSFINSGGSTWYASWVKGRFTISRDNAKNSLYLQMNSLRDDDTATYFCARGYSTYYGDFNIWGQGTLVTVSS VL: DIVMTQSPSSLSASVGDRVTITCQASQSIDSNLAWFQQKPGKAPKSLIYRASNLASGVPSKFSGSGSGTDFTLTISSLQREDAATYYCLGGVGNVSYRTSFGGGTKVEIK | 6.1 | 0.00498 | 821000 |
| rbQ12, humanized from R11 (antibody, V domains shown) VH: EVQLVESGGGLVQPGGSLRLSCAASGSDINDYPISWVRQAPGKGLEWVSFINSGGSTWYASWVKGRFTISRDNAKNSLYLQMNSLRADDTATYFCARGYSTYYGDFNIWGQGTMVTVSS VL: EIVMTQSPSSLSASVGDRVTITCQASQSIDSNLAWFQQKPGKAPNLLIYRASNLASGVPSRFSGSGSGTEFTLTISSLQREDAATYYCLGGVGNVSYRTSFGQGTKVEIK | 14.2 | 0.0104 | 733000 |
| rbD4, humanized from R11 (antibody, V domains shown) VH: EVQLVESGGGLVQPGRSLRLSCTASGSDINDYPISWFRQAPGKGLEWVGFINSGGSTWYASWVKGRFTISRDDSKSIAYLQMNSLKTDDTATYFCARGYSTYYGDFNIWGQGTTVTVSS VL: DVVMTQSPSSLSASVGDRVTITCQASQSIDSNLAWFQQKPGKAPNLLIYRASNLASGVPSRFSGSGSGTEFTLTISSLQREDAATYYCLGGVGNVSYRTSFGQGTKVEIK | 9 | 0.0071 | 785000 |
| chimeric mAb 2A2 (antibody, V domains shown) VH: QVQLQQSGAELVRPGASVTLSCKASGYTFSDYEMHWVIQTPVHGLEWIGAIDPETGGTAYNQKFKGKAILTADKSSSTAYMELRSLTSEDSAVYYCTGYYDYDSFTYWGQGTLVTVSA VL: DIVMTQSQKIMSTTVGDRVSITCKASQNVDAAVAWYQQKPGQSPKLLIYSASNRYTGVPDRFTGSGSGTDFTLTISNMQSEDLADYFCQQYDIYPYTFGGGTKLEIK | 5.7 | 0.00968 | 1.69e+06 |
| hu2A2-D23, humanized from 2A2 (antibody, V domains shown) VH: QVQLVESGAEVKKPGASVKLSCKASGYTFSDYEMHWVRQAPGQRLEWMGAIDPETGGTAYNQKFKGRVTITVDKSASTAYMELSSLRSEDTAVYYCTGYYDYDSFTYWGPGTTVTVSS VL: DIVMTQSPSTLSASVGDRVTITCKASQNVDAAVAWYQQKPGTAPKLLIYSASNRYTGVPSRFSGSGSGTEFTLTISSLQSEDLADYFCQQYDIYPYTFGQGTKLEIK | 8 | 0.0138 | 1.72e+06 |
| hu2A2b-Q11, humanized from 2A2 (antibody, V domains shown) VH: EVQLVQSGAEVKKPGASVKVSCKASGYTFSDYEMHWVRQAPGQGLEWLGAIDPETGGTAYNQKFKGRVTMTGDTSISTAYMELSRLTSDDTAVYYCTGYYDYDSFTYWGQGTLVSVSS VL: DIQMTQSPSSLSTSVGDRVTITCKASQNVDAAVAWYQQKPGKAPKLLIYSASNRYTGVASRFSGSGSGTDFTFTISSLQSEDLADYFCQQYDIYPYTFGQGTKLEIK | 9.9 | 0.0173 | 1.75e+06 |
| hu2A2-D16, humanized from 2A2 (antibody, V domains shown) VH: EVQLVESGAEVKKPGASVKVSCKASGYTFSDYEMHWVRQAPGQGLEWVGAIDPETGGTAYNQKFKGRVTMTRDTSTSTVYMELSSLRSEDTAVYYCTGYYDYDSFTYWGQGTLVTVSS VL: DIQMTQSPSSLSASVGDRVTITCKASQNVDAAVAWYQQKPGKAPKLLIYSASNRYTGIPTRFSGSGSGTDFTLTISSLQSEDLADYFCQQYDIYPYTFGQGTKVEIK | 10.9 | 0.0189 | 1.73e+06 |
